# Measurements: patent publication US20240190964A1 (KYMAB, published 2024)
# T1: human ICOS (inducible T-cell co-stimulator) (human, UniProt Q9Y6W8 21-199)
# T1 construct: also called the ICOS receptor
# T1 sequence: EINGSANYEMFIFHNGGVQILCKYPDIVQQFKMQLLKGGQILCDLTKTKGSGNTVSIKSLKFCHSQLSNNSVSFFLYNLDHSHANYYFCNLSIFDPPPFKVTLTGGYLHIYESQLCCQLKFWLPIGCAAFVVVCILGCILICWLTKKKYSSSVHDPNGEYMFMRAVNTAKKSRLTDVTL
# B1: KY1044 (aka STIM003), fully human IgG1 anti-ICOS antibody (antibody, V domains shown)
# VH: EVQLVESGGGVVRPGGSLRLSCVASGVTFDDYGMSWVRQAPGKGLEWVSGINWNGGDTDYSDSVKGRFTISRDNAKNSLYLQMNSLRAEDTALYYCARDFYGSGSYYHVPFDYWGQGILVTVSS
# VL: EIVLTQSPGTLSLSPGERATLSCRASQSVSRSYLAWYQQKRGQAPRLLIYGASSRATGIPDRFSGDGSGTDFTLSISRLEPEDFAVYYCHQYDMSPFTFGPGTKVDIKR
# Biological target: T1, human ICOS (inducible T-cell …)
# Assay: ICOS receptor occupancy (free ICOS detection) on peripheral CD4 memory T cells in longitudinal PBMC samples, chipcytometry, patient dosed with KY1044 in vivo
binder,measurement,value
B1,binding result,binds
